Assay [1] has as its target T1, truncated OGT N567K (O-GlcNAc transferase, residues 323-1044, N567K variant) (human) (UniProt O15294).
T1 sequence: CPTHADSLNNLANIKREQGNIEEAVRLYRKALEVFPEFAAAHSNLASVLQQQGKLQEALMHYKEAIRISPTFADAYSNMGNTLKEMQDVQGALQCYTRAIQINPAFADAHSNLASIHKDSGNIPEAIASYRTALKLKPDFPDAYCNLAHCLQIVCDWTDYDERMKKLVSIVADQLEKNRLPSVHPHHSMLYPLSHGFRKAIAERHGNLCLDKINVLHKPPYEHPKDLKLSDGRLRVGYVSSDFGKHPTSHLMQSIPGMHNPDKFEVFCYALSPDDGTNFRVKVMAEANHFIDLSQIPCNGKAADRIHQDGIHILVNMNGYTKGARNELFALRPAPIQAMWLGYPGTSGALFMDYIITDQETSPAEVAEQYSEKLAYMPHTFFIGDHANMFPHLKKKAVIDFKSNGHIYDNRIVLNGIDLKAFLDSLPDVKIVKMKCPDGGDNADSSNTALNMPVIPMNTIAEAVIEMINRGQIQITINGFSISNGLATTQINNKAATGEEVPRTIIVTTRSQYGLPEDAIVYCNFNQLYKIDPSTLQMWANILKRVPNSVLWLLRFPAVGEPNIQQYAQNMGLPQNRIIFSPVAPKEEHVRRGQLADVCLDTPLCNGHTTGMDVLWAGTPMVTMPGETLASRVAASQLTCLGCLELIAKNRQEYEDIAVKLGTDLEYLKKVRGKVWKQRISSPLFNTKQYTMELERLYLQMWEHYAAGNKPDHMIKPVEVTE

For assay [2], the target named is T2, truncated OGT N567K (O-GlcNAc transferase, residues 323-1044, N567K variant) (human, UniProt O15294 323-1044, N567K).
T2 construct: O-GlcNAc transferase (OGT), human, residues 323-1044, with the patient missense mutation N567K in the catalytic domain; In the crystal it also holds the donor analog UDP-5S-GlcNAc; N567K is a de novo mutation found in patients; also called N567K OGT; O-linked β-N-acetyl-D-glucosamine (O-GlcNAc) transferase N567K; source: recombinant, from Escherichia coli (expression and purification in SI …)
T2 sequence (looked up): T1 sequence
Put plainly: crystal structure; OGT N567K (323-1044) cocrystallized with the donor analog UDP-5S-GlcNAc and acceptor peptide P2; ternary complex; molecular replacement with PDB 5C1D. To be noted: both partners purified.

Experimental findings from PMC6660750, “Catalytic deficiency of O-GlcNAc transferase leads to X-linked intellectual disability” (Proceedings of the National Academy of Sciences of the …, 2019) are described below.

B1: P1 acceptor peptide (KKVPVSRA) (peptide)
peptide: KKVPVSRA
Regarding B1, the OGT glycosyltransferase activity, steady-state (Michaelis-Menten) kinetics, fluorometric assay, OGT N567K against acceptor peptide P1, compared with OGT WT in assay [1] was 12 fold.

B2: P2 acceptor peptide (KKVAVSRA) (peptide)
peptide: KKVAVSRA
notes: OGT acceptor peptide substrate with alanine at the -2 subsite
In the case of B2, the binding result in assay [2] is “binds”.
